We go through 2 substances from PMC6753080.

In assay [1] the target is 6xHis-MBP-ERC1 fusion protein (mouse). Put plainly: rotary shadowing electron microscopy; purified MBP-ERC1 diluted in spraying buffer (100 mM ammonium acetate, 30% glycerol), sprayed onto mica, platinum and carbon coated.
For assay [2] the target is unchanged. Put plainly: static light scattering; purified ERC1 on a Viskotek TDAMax system; data averaged across the protein elution volume; protein purified in 20 mM HEPES pH 7.4, 250 mM NaCl, 0.5 mM TCEP.
The target in a further assay is GFP-ERC1 (mouse). Put plainly: Numbers & Brightness; cytoplasm of living COS7 cells expressing GFP-ERC1; brightness compared with monomeric and dimeric GFP; confocal time series of 300 images.

GFP-ERC1, sequence (Q99MI1 whole entry): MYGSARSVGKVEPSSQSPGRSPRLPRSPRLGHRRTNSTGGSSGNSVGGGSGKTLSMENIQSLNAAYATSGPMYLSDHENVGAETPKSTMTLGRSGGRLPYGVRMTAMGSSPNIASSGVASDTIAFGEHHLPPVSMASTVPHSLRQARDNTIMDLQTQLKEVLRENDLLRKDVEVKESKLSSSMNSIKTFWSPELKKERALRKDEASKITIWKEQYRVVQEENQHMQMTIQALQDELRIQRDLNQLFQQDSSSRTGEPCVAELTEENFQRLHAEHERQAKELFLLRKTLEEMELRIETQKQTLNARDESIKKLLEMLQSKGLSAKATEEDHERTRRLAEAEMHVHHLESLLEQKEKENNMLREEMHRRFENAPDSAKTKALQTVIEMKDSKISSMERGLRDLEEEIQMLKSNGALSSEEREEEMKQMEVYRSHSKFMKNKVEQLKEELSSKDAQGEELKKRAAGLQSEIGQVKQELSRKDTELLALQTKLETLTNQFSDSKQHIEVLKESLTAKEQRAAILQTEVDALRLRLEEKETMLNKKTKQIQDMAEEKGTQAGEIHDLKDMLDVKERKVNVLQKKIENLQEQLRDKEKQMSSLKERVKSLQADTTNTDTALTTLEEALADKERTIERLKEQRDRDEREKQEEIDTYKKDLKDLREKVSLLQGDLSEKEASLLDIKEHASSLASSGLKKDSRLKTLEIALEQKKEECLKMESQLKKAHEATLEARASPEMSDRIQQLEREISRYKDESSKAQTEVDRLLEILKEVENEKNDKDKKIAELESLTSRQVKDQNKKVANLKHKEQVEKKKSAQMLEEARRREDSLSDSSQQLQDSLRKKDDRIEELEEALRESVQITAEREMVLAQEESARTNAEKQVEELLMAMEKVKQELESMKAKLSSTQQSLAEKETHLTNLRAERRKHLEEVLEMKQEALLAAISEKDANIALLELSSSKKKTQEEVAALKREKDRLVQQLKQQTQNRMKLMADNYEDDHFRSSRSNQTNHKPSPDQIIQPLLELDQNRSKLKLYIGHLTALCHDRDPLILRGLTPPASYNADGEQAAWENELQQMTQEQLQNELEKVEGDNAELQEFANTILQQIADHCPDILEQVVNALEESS

As for “6xHis-MBP-ERC1 fusion protein (natural protein)”, the stoichiometry N in assay [1] and in assay [2] was 2 in each case.
In the case of GFP-ERC1 (natural protein), in the assay with GFP-ERC1 (mouse), the brightness ratio to monomeric GFP came to 2.1 and the stoichiometry N was determined as 2.
